Measurements from US20040043401A1.

Molecular target: human prostate-specific membrane antigen (PSMA) (human) (UniProt Q04609)
Assay: cell-based or functional assay
Settings: for IL-2 content normalized for gene transfer efficiency, transduced PBLs on NIH3T3 feeder expressing PSMA + B7.1: scale: pg/ml divided by percentage transduced cells

human prostate-specific membrane antigen (PSMA) (human), sequence (Q04609 whole entry): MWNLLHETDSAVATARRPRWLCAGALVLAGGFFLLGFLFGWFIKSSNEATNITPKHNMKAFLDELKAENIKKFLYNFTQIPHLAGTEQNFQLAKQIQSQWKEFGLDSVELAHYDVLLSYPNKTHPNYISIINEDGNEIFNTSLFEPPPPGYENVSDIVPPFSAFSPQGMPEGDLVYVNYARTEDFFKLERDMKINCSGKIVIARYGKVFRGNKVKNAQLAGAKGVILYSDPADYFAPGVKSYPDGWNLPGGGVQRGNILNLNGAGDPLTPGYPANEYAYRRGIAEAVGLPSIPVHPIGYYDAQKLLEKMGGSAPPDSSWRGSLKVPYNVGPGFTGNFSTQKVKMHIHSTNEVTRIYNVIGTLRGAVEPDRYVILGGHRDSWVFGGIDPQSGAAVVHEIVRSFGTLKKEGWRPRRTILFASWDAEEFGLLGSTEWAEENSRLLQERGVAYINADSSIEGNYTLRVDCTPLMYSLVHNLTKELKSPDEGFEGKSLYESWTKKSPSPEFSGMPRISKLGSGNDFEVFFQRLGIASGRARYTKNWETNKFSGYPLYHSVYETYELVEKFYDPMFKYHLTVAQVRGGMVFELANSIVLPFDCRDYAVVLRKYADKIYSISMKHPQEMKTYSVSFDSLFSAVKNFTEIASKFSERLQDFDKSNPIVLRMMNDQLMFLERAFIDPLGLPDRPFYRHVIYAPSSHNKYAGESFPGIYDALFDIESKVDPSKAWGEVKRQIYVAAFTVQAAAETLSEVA
P28 fusion receptor (J591 scFv fused to human CD28), sequence (P10747 114-220): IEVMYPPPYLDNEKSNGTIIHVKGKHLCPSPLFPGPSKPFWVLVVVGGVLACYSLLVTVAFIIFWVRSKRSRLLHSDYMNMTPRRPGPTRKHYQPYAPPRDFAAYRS

Row | IL-2 concentration in supernatant (ELISA, 24 h), transduced PBLs on NIH3T3 feeder expressing PSMA [pg/mL] | IL-2 concentration in supernatant (ELISA, 24 h), transduced PBLs on NIH3T3 feeder expressing PSMA + B7.1 [pg/mL] | IL-2 content normalized for gene transfer efficiency, transduced PBLs on NIH3T3 feeder expressing PSMA + B7.1 | Substance
1 | < 50 | < 50 |  | P28 fusion receptor (J591 scFv fused to human CD28) (from UniProt P10747 114-220)
2 | < 50 | 29700 | 958 | Pz28 fusion receptor (Pz1 with the 41 amino acid intracellular domain of human CD28 at its C-terminus) (from UniProt P01732 137-209)
3 | < 50 | 164000 | 3280 | Pz1 fusion receptor (J591 scFv - human CD8 alpha hinge and transmembrane - intracellular domain of human TCR zeta) (from UniProt P01732 137-209)
